This is an account of results in patent publication US8906844B2 (SYNTONIX PHARMACEUTICALS, dated 2014).

Positions of bridges follow the written chain, without caps; N, C: chain ends. Non-standard residues stand in square brackets, D forms with d. No end group written: not given here. Pen = CC(C)(S)[C@H](N)C(=O)O; NMeA = CN[C@@H](C)C(=O)O A value given as a limit tells only on which side of the number the result lay.

Experiment [1] deals with T1, soluble human FcRn (shFcRn) (human, UniProt P55899 24-297; P61769 21-119, biotinylated with Sulfo-NHS-LC-Biotin in the ELISA; amine-coupled to a CM5 chip in SPR).
T1 construct: also called biotinylated shFcRn
T1 sequence (P55899 24-297 limits assumed, chain 1 of 2): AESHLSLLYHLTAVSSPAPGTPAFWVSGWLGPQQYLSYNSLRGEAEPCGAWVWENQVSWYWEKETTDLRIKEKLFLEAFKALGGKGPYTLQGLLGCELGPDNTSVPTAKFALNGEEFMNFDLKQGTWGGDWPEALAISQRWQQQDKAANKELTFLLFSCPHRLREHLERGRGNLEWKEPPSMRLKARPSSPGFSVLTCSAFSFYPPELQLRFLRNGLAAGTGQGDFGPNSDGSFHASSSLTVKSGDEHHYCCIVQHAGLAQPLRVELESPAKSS
T1 sequence (P61769 21-119 limits assumed, chain 2 of 2): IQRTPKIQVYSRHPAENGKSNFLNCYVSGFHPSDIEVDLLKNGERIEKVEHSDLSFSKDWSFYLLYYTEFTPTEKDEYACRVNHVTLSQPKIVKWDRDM
The experiment can be described thus: SPR, pH 6. As to the method: The following steps were performed to cross-link soluble human or cynomolgus FcRn to the dextran surface of a CM5 sensor chip (Biacore AB, Uppsala, Sweden) by an amine coupling reaction involving 1-ethyl-(3-dimethylaminopropyl)-carbodiimide hydrochloride (EDC) (Biacore AB, Uppsala, Sweden) and N-hydroxysuccinimide (NHS) (Biacore AB, Uppsala, Sweden) as recommended by Biacore (BIAapplications Handbook, version AB, section 4.2, Biacore AB, Uppsala, Sweden). The FcRn protein was diluted in 50 mM sodium acetate, pH 4.5 (Biacore AB, Uppsala, Sweden) to a concentration of 10 to 30 µg/ml and used to coat one flow cell on the sensor chip. Residual sites on the FcRn flow cell were blocked with 1 M ethanolamine hydrochloride pH 8.5 (Biacore AB, Uppsala, Sweden). A control flow cell was blocked with ethanolamine for reference subtraction. For analysis of the monomeric peptides, FcRn was coated to a final density of 4000-5000 response units (RU). For analysis of the peptide dimers, FcRn was coated to a density of 2000-2500 RU. All SPR measurements were performed using a BIACORE 3000 Instrument (Biacore AB Uppsala, Sweden). For measurements done at either pH 6 or pH 7.4, experiments were performed in 50 mM phosphate, 100 mM sodium chloride, 0.01% surfactant P20 (Biacore AB, Uppsala, Sweden).
A. Representative Procedure for the Determination of Binding Constant of Monomeric Peptides Ten 2-fold dilutions of the peptide were injected over the FcRn-CM5 chip at a rate of 20 µl/min for 2 min. The peptide was dissociated from the chip for 2.5 minutes with buffer. Any remaining peptide was removed from the chip with a 30 second injection of HBS-P buffer (Biacore AB, Uppsala, Sweden) at a rate of 30 µl/min. Sensorgrams were generated and analyzed using BiaEval software version 3.1 (Biacore AB, Uppsala, Sweden). The equilibrium RU observed for each injection was plotted against concentration. The equilibrium K_D values were derived by analysis of the plots using the steady state affinity model included in the BiaEval software.

Experiment [2] has as its target T1, soluble human FcRn (shFcRn). Put plainly: competition ELISA vs human IgG. The procedure:
The wells were coated with 100 μl/well of 1 μg/ml biotinylated-shFcRn in Buffer A. The plate was sealed and incubated at 37° C. for 2 hours. Afterwards, the plate was washed with 200 μl/well of Buffer B (Buffer B: 100 mM MES pH 6, 150 mM NaCl, 0.5% BSA IgG-free (Jackson ImmunoResearch, West Grove, Pa.), 0.05% Tween-20). […] To allow for mixing, the plate was rocked for 2 minutes, sealed and incubated at 37° C. for 2 hours. […] The plate was covered, incubated for 30 minutes at room temperature and washed 4 times with 200 μl/well of ice-cold buffer B. SureBlue TMB substrate solution (100 μl/well, KPL, Gaithersburg, Md.) was added and the plate was allowed to incubate at room temperature until color developed, which took 5 to 10 minutes. Once color developed, 100 μl/well of TMB stop solution (KPL, Gaithersburg, Md.) was added and the absorbance was measured at 450 nm.
(An ELISA detects its analyte on a solid surface through an enzyme-linked reagent.)

B1: Peptide No. 40 (peptide)
peptide: QRFXTGHFGXLYPCNGP
modifications: Pen4; D-Pro10; disulfide; C-terminal amide
As usually defined, the Kd is a measure of binding affinity in units of concentration. A higher Kd goes with lower affinity. The IC50 is the concentration that gives 50% inhibition. Low readings indicate greater potency, high ones weaker potency. For the molecule B1, in experiment [1], the dissociation constant (Kd) is 230 nM. The molecule further had an IC50 in experiment [2] of 1400 nM.

B2: Peptide No. 108 (peptide)
peptide: QRFXTXHFGGLYPCNGP
modifications: Pen4; Sar6; disulfide; C-terminal amide
As for B2, the Kd in experiment [1] came out at 88000 nM. In addition, in experiment [2], the half-inhibitory concentration (IC50) is over 125000 nM.

B3: Peptide No. 50 (peptide)
peptide: QRFXTGHFXGLYPCNGP
modifications: Pen4; D-His9; disulfide; C-terminal amide
B3 came in with a Kd in experiment [1] of 410 nM. Besides, the IC50 in experiment [2] came to 3600 nM.

B4: Peptide No. 154 (peptide)
peptide: QRFXTGHFXGXYPCNGP
modifications: Pen4; D-Ala9; NMeLeu11; disulfide; C-terminal amide
In experiment [1], B4 yielded a dissociation constant (Kd) of 230 nM. The half-inhibitory concentration (IC50) in experiment [2] stood at 3200 nM.

B5: Peptide No. 51 (peptide)
peptide: QRFXTGHFXGLYPCNGP
modifications: Pen4; D-Ile9; disulfide; C-terminal amide
B5: the Kd in experiment [1] worked out at 2600 nM. For the same molecule, the half-maximal inhibitory concentration (IC50) in experiment [2] was 9400 nM.

B6: Peptide No. 155 (peptide)
peptide: QRF[Pen]TGHF[dF]GPYPCNGP-NH2
modifications: disulfide 4-14; N-terminus assumed
SMILES: C[C@@H](O)[C@@H]1NC(=O)[C@@H](NC(=O)[C@H](Cc2ccccc2)NC(=O)[C@H](CCCNC(=N)N)NC(=O)[C@@H](N)CCC(N)=O)C(C)(C)SSC[C@@H](C(=O)N[C@@H](CC(N)=O)C(=O)NCC(=O)N2CCC[C@H]2C(N)=O)NC(=O)[C@@H]2CCCN2C(=O)[C@H](Cc2ccc(O)cc2)NC(=O)[C@@H]2CCCN2C(=O)CNC(=O)[C@@H](Cc2ccccc2)NC(=O)[C@H](Cc2ccccc2)NC(=O)[C@H](Cc2c[nH]cn2)NC(=O)CNC1=O
In the case of B6, the dissociation constant (Kd) in experiment [1] amounted to 18300 nM. The half-maximal inhibitory concentration (IC50) in experiment [2] stood at 39000 nM.

B7: Peptide No. 150 (peptide)
peptide: QRFXTGHFXXLYPCNGP
modifications: Pen4; D-Phe9; D-Pro10; disulfide; C-terminal amide
For the molecule B7, binding in experiment [1] was characterised by a dissociation constant (Kd) of 720 nM. Besides, the 50% inhibitory concentration (IC50) in experiment [2] worked out at 5900 nM.

B8: Peptide No. 152 (peptide)
peptide: QRFXTGHFXXLYPCNGP
modifications: Pen4; D-Pro9; D-Pro10; disulfide; C-terminal amide
Molecule B8 showed a Kd in experiment [1] of 3300 nM. This molecule also yielded a 50% inhibitory concentration (IC50) in experiment [2] of 21000 nM.

B9: Peptide No. 196 (peptide)
peptide: QRFC[NMeA]GHFGGLYPCNGP-NH2
modifications: disulfide 4-14; N-terminus assumed
SMILES: CC(C)C[C@@H]1NC(=O)CNC(=O)CNC(=O)[C@H](Cc2ccccc2)NC(=O)[C@H](Cc2c[nH]cn2)NC(=O)CNC(=O)[C@H](C)N(C)C(=O)[C@@H](NC(=O)[C@H](Cc2ccccc2)NC(=O)[C@H](CCCNC(=N)N)NC(=O)[C@@H](N)CCC(N)=O)CSSC[C@@H](C(=O)N[C@@H](CC(N)=O)C(=O)NCC(=O)N2CCC[C@H]2C(N)=O)NC(=O)[C@@H]2CCCN2C(=O)[C@H](Cc2ccc(O)cc2)NC1=O
For the molecule B9, in experiment [1], the Kd worked out at 18000 nM. Moreover, the IC50 in experiment [2] was 169000 nM.

B10: Peptide No. 153 (peptide)
peptide: QRFXTGHFXGXYPCNGP
modifications: Pen4; D-Phe9; NMeLeu11; disulfide; C-terminal amide
Molecule B10 gave a Kd in experiment [1] of 240 nM. The molecule also displayed an IC50 in experiment [2] of 1300 nM.

B11: Peptide No. 52 (peptide)
peptide: QRFXTGHFXGLYPCNGP
modifications: Pen4; D-Phe9; disulfide; C-terminal amide
Turning to B11, the Kd in experiment [1] came out at 510 nM. In experiment [2], this molecule showed an IC50 of 2800 nM.

B12: Peptide No. 211 (peptide)
peptide: FVTGHFG[dP]WYPA-NH2
modifications: N-terminus assumed
SMILES: CC(C)[C@H](NC(=O)[C@@H](N)Cc1ccccc1)C(=O)N[C@H](C(=O)NCC(=O)N[C@@H](Cc1c[nH]cn1)C(=O)N[C@@H](Cc1ccccc1)C(=O)NCC(=O)N1CCC[C@@H]1C(=O)N[C@@H](Cc1c[nH]c2ccccc12)C(=O)N[C@@H](Cc1ccc(O)cc1)C(=O)N1CCC[C@H]1C(=O)N[C@@H](C)C(N)=O)[C@@H](C)O
For B12, the Kd in experiment [1] came out at 8000 nM.

B13: Peptide No. 113 (peptide)
peptide: QRFXTGHFGGXYPCNGP
modifications: Pen4; NMeLeu11; disulfide; C-terminal amide
Consider B13, for which binding in experiment [1] was characterised by a dissociation constant (Kd) of 86 nM. Moreover, the IC50 in experiment [2] worked out at 1600 nM.

B14: Peptide No. 295 (peptide)
peptide: QRFXTGHFGXLYPXNGP
modifications: Pen4; D-Pro10; Pen14; disulfide; C-terminal amide
B14: the Kd in experiment [1] is 280 nM. This molecule also displayed an IC50 in experiment [2] of 1600 nM.
